Results published in patent US20260184815A1 (published 2026).

B1: M160-G12 (Fab) (Fab, V domains shown)
VH: EVQLLESGGGLVQPGGSLRLSCAASGFTFSHYLMTWVRQAPGKGLEWVSYISPSGGHTIYADSVKGRFTISRDNSKNTLYLQMNSLRAEDTAVYYCARVARGIAARSRTSYFDYWGQGTLVTVSS
VL: DIQMTQSPSFLSASVGDRVTITCRASQGISSYLAWYQQKPGKAPKLLIYAASTLQSGVPSRFSGSGSGTEFTLTISSLQPEDFATYYCQQLNSYPLTFGGGTKVEIK
notes: HC as printed runs into CH1
B2: M41-A11 (Fab, V domains shown)
VH: EVQLLESGGGLVQPGGSLRLSCAASGFTFSHYRMSWVRQAPGKGLEWVSSIYPSGGRTVYADSVKGRFTISRDNSKNTLYLQMNSLRAEDTAVYYCAKDKFEWRLLFRGIGNDAFDIWGQGTMVTVSS
VL: QSVLTQPPSVSVSPGQTASITCSGDKLGDKYTSWYQQRPGQSPVLVIYQDIKRPSGIPERFSGSNSGNTATLTISGTQAMDEADYYCQAWDSPNARVFGSGTKVTVL
notes: HC as printed runs into CH1
B3: M145-D11 (Fab, V domains shown)
VH: B2 VH
VL: B2 VL
notes: HC as printed runs into CH1; also called 559A-M0145-D11
B4: M35-G04 (Fab, V domains shown)
VH: EVQLLESGGGLVQPGGSLRLSCAASGFTFSYYHMSWVRQAPGKGLEWVSVISPSGGSTKYADSVKGRFTISRDNSKNTLYLQMNSLRAEDTAVYYCARGGSSDYAWGSYRRPYYFDYWGQGTLVTVSS
VL: DIQMTQSPATLSLSPGERATLSCRASQSVSSYLAWYQQKPGQAPRLLIYDASNRATGIPARFSGSGSGTDFTLTISSLEPEDFAVYYCQQRSNWPRGFTFGPGTKVDIK
notes: HC as printed runs into CH1; also called 559A-M0035-G04
B5: M145-D01 (Fab, V domains shown)
VH: B4 VH
VL: B4 VL
notes: HC as printed runs into CH1
B6: M7-B04 (Fab, V domains shown)
VH: EVQLLESGGGLVQPGGSLRLSCAASGFTFSWYSMVWVRQAPGKGLEWVSSISPSGGLTNYADSVKGRFTISRDNSKNTLYLQMNSLRAEDTAVYYCARHTAARPFYYYYMDVWGKGTTVTVSS
VL: QSALTQPASVSGSPGQSITISCTGTNSDVGNYNLVSWYQQHPGEAPKLLIYEVNKRPSGVSNRFSGSKSGNTASLTISGLQAEDEADYLCCSYAGNRNFYVFGAGTKVTVL
notes: HC as printed runs into CH1
B7: M29-E09 (Fab, V domains shown)
VH: EVQLLESGGGLVQPGGSLRLSCAASGFTFSWYEMGWVRQAPGKGLEWVSSIYSSGGGTMYADSVKGRFTISRDNSKNTLYLQMNSLRAEDTAVYYCARNPQYSGYDRSLSDGAFDIWGQGTMVTVSS
VL: QYELTQPPSVSVSPGQTATITCSGDNLGNKYNSWYQQKPGQSPLLVIYQDTKRPSAIPERFSGSNSGNTATLTISGTQAMDEADYYCQAWDGNVVFGGGTKLTVL
notes: HC as printed runs into CH1
B8: M142-H08 (Fab) (Fab, V domains shown)
VH: EVQLLESGGGLVQPGGSLRLSCAASGFTFSAYSMIWVRQAPGKGLEWVSYIRPSGGRTTYADSVKGRFTISRDNSKNTLYLQMNSLRAEDTAVYYCARGGLLLWFRELKSNYFDYWGQGTLVTVSS
VL: DIQMTQSPSSLSAFVGDRVTITCRASQPIDNYLNWYHQKPGKAPKLLIYAASRLQSGVPSRLSGSGFGTDFTLTISSLQPEDFGNYYCQQSYTVPYTFGGGTKVEIR
notes: HC as printed runs into CH1
B9: M152-A12 (Fab, V domains shown)
VH: EVQLLESGGGLVQPGGSLRLSCAASGFTFSPYFMGWVRQAPGKGLEWVSGIGPSGGSTTYADSVKGRFTISRDNSKNTLYLQMNSLRAEDTAVYYCAREGPPYSSGWYRGLRQYHFDYWGQGTLVTVSS
VL: DIQMTQSPSSLSASVGDRVTITCRASQSISSYLSWYQQRPGKAPNLLIYAASSLQSGVPSRFSGSGSGTDFTLTISSLQPEDFATYYCQQSISIPRTFGQGTKVEVK
notes: HC as printed runs into CH1
B10: M110-C12 (Fab, V domains shown)
VH: EVQLLESGGGLVQPGGSLRLSCAASGFTFSYYEMDWVRQAPGKGLEWVSGISSSGGHTAYADSVKGRFTISRDNSKNTLYLQMNSLRAEDTATYYCARERRSSSRARYYYGMDVWGQGTTVTVSS
VL: DIQMTQSPLSLSVTPGEPASISCRSSLSLLHSNGYNYLDWYVQRPGQSPQLLMYLSSTRASGVPDRFSGSGSGTDFTLEISRVEAEDVGVYYCMQPLETPPTFGGGTKVEIK
notes: HC as printed runs into CH1
B11: M29-D09 (Fab, V domains shown)
VH: EVQLLESGGGLVQPGGSLRLSCAASGFTFSWYTMVWVRQAPGKGLEWVSYIYPSGGATFYADSVKGRFTISRDNSKNTLYLQMNSLRAEDTAVYYCAMGSYDYIWGFYSDHWGQGTLVTVSS
VL: QSALTQPPTVSVSPGQTARITCSGNKLGDKYVAWYQQKPGQSPMLVIYQDTKRPSRVSERFSGSNSANTATLSISGTQALDEADYYCQAWDSSIVIFGGGTRLTVL
notes: HC as printed runs into CH1; also called 559A-M0029-D09
B12: M7-E07 (Fab, V domains shown)
VH: EVQLLESGGGLVQPGGSLRLSCAASGFTFSWYLMIWVRQAPGKGLEWVSYIYPSGGFTYYADSVKGRFTISRDNSKNTLYLQMNSLRAEDMAVYYCARTEGPLSWGYGMDVWGQGTTVTVSS
VL: not shown
notes: HC as printed runs into CH1
B13: M27-E05 (Fab, V domains shown)
VH: B12 VH
VL: not shown
notes: HC as printed runs into CH1
B14: M38-F02 (Fab, V domains shown)
VH: EVQLLESGGGLVQPGGSLRLSCAASGFTFSYYMMVWVRQAPGKGLEWVSYIYSSGGHTVYADSVKGRFTISRDNSKNTLYLQMNSLRAEDTAVYYCARDLFLYDFWSKGAFDIWGQGTMVTVSS
VL: QSVLTQPPSVSVSPGQTASITCSGEKLGDKYVSWYQQKPGQSPSLVICEDSRRPSGIPERFSGSNSGNTATLTISGAQPMDEADYYCQAWDSSTAIFGPGTKVTVL
notes: HC as printed runs into CH1
B15: M146-E12 (Fab, V domains shown)
VH: EVQLLESGGGLVQPGGSLRLSCAASGFTFSRYIMHWVRQAPGKGLEWVSSISPSGGLTSYADSVKGRFTISRDNSKNTLYLQMNSLRAEDTAVYYCAREFENAYHYYYYGMDVWGQGTTVTVSS
VL: DIQMTQSPSSLSASVGDRVTITCRASGDIGNALGWYQQKPGKAPRLLISDASTLQSGVPLRFSGSGSGTEFTLTISSLQPEDFATYYCLQGYNYPRTFGQGTKLEIR
notes: HC as printed runs into CH1
B16: M10-F10 (Fab, V domains shown)
VH: EVQLLESGGGLVQPGGSLRLSCAASGFTFSFYNMNWVRQAPGKGLEWVSSISPSGGETNYADSVKGRFTISRDNSKNTLYLQMNSLRAEDTAVYYCARGGGAYRNNWWGGFDIWGLGTMVTVSS
VL: DIQMTQSPSSLSASVGDRVTITCRASQSISVYLNWYQHKPGKAPKLLIYGASNLQFGVPSRFSGSGYGTDFTLTISSLQPEDFATYHCQQTFSLFTFGGGTKVEIK
notes: HC as printed runs into CH1
B17: M6-D09 (Fab, V domains shown)
VH: EVQLLESGGGLVQPGGSLRLSCAASGFTFSFYYMVWVRQAPGKGLEWVSVIYPSGGITVYADSVKGRFTISRDNSKNTLYLQMNSLRAEDTAVYYCARDKWAVMPPYYYYAMDVWGQGTTVTVSS
VL: DIQMTQSPSSLSASVGDRVTITCRASQSIRNYLNWYQQKPGKAPNLLIYAASTLQSGVPARFSGSGSGTDFTLTISSLQPEDFATYYCQQLSGYPHTFGQGTKLEIK
notes: HC as printed runs into CH1; also called M06-D09; 559A-M0006-D09
B18: M8-A09 (Fab, V domains shown)
VH: EVQLLESGGGLVQPGGSLRLSCAASGFTFSTYFMLWVRQAPGKGLEWVSSIYPSGGNTVYADSVKGRFTISRDNSKNTLYLQMNSLRAEDTAVYYCARAASPVRNYYYYGMDVWGQGTTVTVSS
VL: QCELTQPPSESVSPGQTANITCSGDKLGNKYAYWYQQKPGQSPVLVIYQDNNRPSGIPERFSGSNSGNTATLTISGTQAIDEANYYCQAWDSRTVVFGGGTKLTVL
notes: HC as printed runs into CH1
B19: M73-D06 (Fab, V domains shown)
VH: EVQLLESGGGLVQPGGSLRLSCAASGFTFSRYEMYWVRQAPGKGLEWVSSISSSGGPTAYADSVKGRFTISRDNSKNTLYLQMNSLRAEDTAMYYCAKGTPKWELLLRSIYIENAFDIWGQGTMVTVSS
VL: QSELTQPPSASETPGQRVTISCSGSSSNIGSNTVSWFQQLPGSAPRLLIYNDHRRPSGVPDRFSGSKSGTSASLVISGLQSQDEADYYCSAWDDSLNGVVFGGGTKLTVL
notes: HC as printed runs into CH1
B20: M76-D01 (Fab, V domains shown)
VH: EVQLLESGGGLVQPGGSLRLSCAASGFTFSFYAMHWVRQAPGKGLEWVSGIVPSGGRTHYADSVKGRFTISRDNSKNTLYLQMNSLRAEDTAVYYCATDSSGSPNPLFDYWGQGTLVTVSS
VL: DIVMTQTPPSLPVNPGEPASISCRSSQSLSDDGNTYLDWYLQRPGQSPQLLIHTLSYRASGVPDRFSGSGSGTDFTLKISRVEAEDVGVYYCMQGTHWPPTFGQGTKVEIK
notes: HC as printed runs into CH1 (ends APSPKS as printed)
B21: M137-E12 (Fab, V domains shown)
VH: EVQLLESGGGLVQPGGSLRLSCAASGFTFSDYRMQWVRQAPGKGLEWVSVIVPSGGNTMYADSVKGRFTISRDNSKNTLYLQMNSLRAEDTAVYYCARGGPGSSIAARRAPTGYYGMDVWGQGTTVTVSS
VL: QSVLIQPPSVSGIPGQRVTISCSGNNSNFGSNTVTWYQQLPGTAPKLLIYSDSRRPSGVPDRFSGSRSDTSASLAISGLQSEDEAEYHCAAWDDSLNGVFGGGTKLTVL
notes: HC as printed runs into CH1

Target: T1, human plasma kallikrein (human, UniProt P03952 20-390; P03952 391-638)
T1 construct: also called pKal; Human pKal
T1 sequence (P03952 20-390, chain 1 of 2): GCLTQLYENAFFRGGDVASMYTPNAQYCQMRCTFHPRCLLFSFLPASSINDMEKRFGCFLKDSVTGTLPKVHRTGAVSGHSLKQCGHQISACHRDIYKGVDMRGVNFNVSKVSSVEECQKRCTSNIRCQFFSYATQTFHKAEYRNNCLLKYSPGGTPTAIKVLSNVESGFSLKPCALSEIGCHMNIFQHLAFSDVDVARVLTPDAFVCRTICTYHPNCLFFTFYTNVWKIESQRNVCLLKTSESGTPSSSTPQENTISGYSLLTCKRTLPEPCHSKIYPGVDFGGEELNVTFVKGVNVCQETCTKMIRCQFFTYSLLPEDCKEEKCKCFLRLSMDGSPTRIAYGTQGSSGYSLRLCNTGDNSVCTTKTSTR
T1 sequence (P03952 391-638, chain 2 of 2): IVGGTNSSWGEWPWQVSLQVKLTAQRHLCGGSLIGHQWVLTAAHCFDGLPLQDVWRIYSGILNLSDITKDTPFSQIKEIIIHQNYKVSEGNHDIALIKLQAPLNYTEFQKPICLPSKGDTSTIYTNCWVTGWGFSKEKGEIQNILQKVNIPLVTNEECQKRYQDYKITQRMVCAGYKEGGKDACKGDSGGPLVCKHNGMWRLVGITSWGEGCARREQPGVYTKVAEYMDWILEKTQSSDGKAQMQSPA
Assay: ELISA, biotinylated pKal signal over streptavidin background
From the text: Abbreviations used: “T/B” is the ELISA signal obtained using of the “target” (biotinylated plasma kallikrein) divided by the ELISA signal of the “background” (streptavidin); both of which were coated on microtiter plates, “nd” is not determined. The symbol “q” refers to the amber suppressible stop codon (TAG), which is translated as glutamine (Q) in strains of E. coli such as the TG1 cells that were used to express the Fab fragments.

| Binder | ELISA (T/B) |
| --- | --- |
| B1 | 38.3 |
| B2 | 28 |
| B3 | 40 |
| B4 | 11.1 |
| B5 | 6.2 |
| B6 | 4.1 |
| B7 | 28.8 |
| B8 | 29.9 |
| B9 | 19 |
| B10 | 2.4 |
| B11 | 47.5 |
| B12 | 45.7 |
| B13 | 41.3 |
| B14 | 33.5 |
| B15 | 49.6 |
| B16 | 39.2 |
| B17 | 39.9 |
| B18 | 5.4 |
| B19 | 4 |
| B20 | 11.2 |
| B21 | 4.5 |
